Test results reported in patent publication US20230265217A1 (TWIST BIOSCIENCE, published 2023).
Where two headings read alike, the source gives them in different places.

Legend:
SARS-CoV-2 S1 (Acro) [1] = biological target: T1, SARS-CoV-2 S1 (Acro) (SARS-CoV-2, UniProt P0DTC2 16-685); assay: Carterra SPR
T1 construct: also called Acro S1

SARS-CoV-2 S1 (Acro) [2] = biological target: T1, SARS-CoV-2 S1 (Acro); assay: Carterra SPR; remark: listed apart in the source
SARS-CoV-2 S1 monomer = SARS-CoV-2 S1 monomer (SARS-CoV-2, UniProt P0DTC2 16-685); assay: binding kinetics, Carterra SPR

Binder	Kd (SARS-CoV-2 S1 (Acro) [1])	Kd (SARS-CoV-2 S1 (Acro) [2])	other results
7-09 (VHH, also called 7-9) VHH: EVQLVESGGGLVQPGGSLRLSCAASGGTFSSIGMGWFRQAPGKEREFVAAISWDGGATAYADSVKGRFTISADNSKNTAYLQMNSLKPEDTAVYYCAKEDVGKPFDWGQGTLVTVSS	0.0241 µM	0.0241 µM	
5A-1 (VHH) VHH: EVQLVESGGGLVQPGGSLRLSCAASGGTFSSIGMGWFRQAPGKEREFVAAISWDGGATAYADSVKGRFTISADNSKNTAYLQMNSLKPEDTAVYYCAKEDVGKPFDWGQGTLVTVSS	0.0066 µM		
7-31 (VHH, not shown: a dimerising Fc or GST) VHH: EVQLVESGGGLVQPGGSLRLSCAASGFTFSNYSMGWFRQAPGKEREFVAAIHWNGDSTAYADSVKGRFTISADNSKNTAYLQMNSLKPEDTAVYYCAAQTEDSAQYIWGQGTLVTVSS		0.228 µM	
6A-3 (VHH) VHH: EVQLVESGGGLVQPGGSLRLSCAASGFTFSPSWMGWFRQAPGKEREFVATINEYGGRNYADSVKGRFTISADNSKNTAYLQMNSLKPEDTAVYYCARVDRDFDYWGQGTLVTVSS	0.0315 µM		
3-24 (VHH, not shown: a dimerising Fc or GST) VHH: EVQLVESGGGLVQPGGSLRLSCAASGINFSRYGMGWFRQAPGKEREFVASITYLGRTNYADSVKGRFTISADNSKNTAYLQMNSLKPEDTAVYYCALRVRPYGQYDWGQGTLVTVSS			binding result (SARS-CoV-2 S1 (Acro) [2]): no binding
7-6 (VHH, not shown: a dimerising Fc or GST) VHH: EVQLVESGGGLVQPGGSLRLSCAASGRIFYPMGWFRQAPGKEREFVAAVRWSSTGIYYTQYADSVKGRFTISADNSKNTAYLQMNSLKPEDTAVYYCAAALSEVWRGSENLREGYDWGQGTLVTVSS		0.0424 µM	
7-29 (VHH, not shown: a dimerising Fc or GST) VHH: EVQLVESGGGLVQPGGSLRLSCAASGRTHSIYPMGWFRQAPGKEREFVASITSYGDTNYADSVKGRFTISADNSKNTAYLQMNSLKPEDTAVYYCAARRWIPPGPIWGQGTLVTVSS		0.0312 µM	
3-28 (VHH, not shown: a dimerising Fc or GST) VHH: EVQLVESGGGLVQPGGSLRLSCAASGFTFRRYDMGWFRQAPGKEREFVSAISGGLAYYADSVKGRFTISADNSKNTAYLQMNSLKPEDTAVYYCAVDLSGDAVYDWGQGTLVTVSS	0.0522 µM	0.0522 µM	
6A-63 (VHH) VHH: EVQLVESGGGLVQPGGSLRLSCAASGQTFNMGWFRQAPGKEREFVAAIGSGGSTSYADSVKGRFTISADNSKNTAYLQMNSLKPEDTAVYYCWRLGNDYFDYWGQGTLVTVSS	0.0464 µM		
7-14 (VHH) VHH: EVQLVESGGGLVQPGGSLRLSCAASGSTFSINAMGWFRQAPGKEREFVAGISRGGTTNYADSVKGRFTISADNSKNTAYLQMNSLKPEDTAVYYCAADGVPEYSDYASGPVWGQGTLVTVSS	0.0208 µM	0.0208 µM	Kd (SARS-CoV-2 S1 monomer): 0.00957 µM; koff (SARS-CoV-2 S1 monomer): 0.000404 s⁻¹; kon (SARS-CoV-2 S1 monomer): 42200 M⁻¹ s⁻¹
7-32 (VHH) VHH: EVQLVESGGGLVQPGGSLRLSCAASGSTFSVNAMGWFRQAPGKEREFVAGVTRGGYTNYADSVKGRFTISADNSKNTAYLQMNSLKPEDTAVYYCAADGVPEYSDYASGPVWGQGTLVTVSS		0.0485 µM	
7-17 (VHH, not shown: a dimerising Fc or GST) VHH: EVQLVESGGGLVQPGGSLRLSCAASGFSLDYYGMGWFRQAPGKEREFVAAITSGGTPHYADSVKGRFTISADNSKNTAYLQMNSLKPEDTAVYYCASAYNPGIGYDWGQGTLVTVSS		0.0604 µM	
8-10 (VHH, not shown: a dimerising Fc or GST) VHH: EVQLVESGGGLVQPGGSLRLSCAASGFIGNYHAMGWFRQAPGKEREFVAAVTWSGGTTNYADSVKGRFTISADNSKNTAYLQMNSLKPEDTAVYYCAREGYYYDSSGYPYYFDYWGQGTLVTVSS		658 µM	
7-26 (VHH) VHH: EVQLVESGGGLVQPGGSLRLSCAASGSTFSINAMGWFRQAPGKEREFVAGITSSGGYTNYADSVKGRFTISADNSKNTAYLQMNSLKPEDTAVYYCAADGVPEYSDYASGPVWGQGTLVTVSS	0.0248 µM	0.0248 µM	Kd (SARS-CoV-2 S1 monomer): 0.00363 µM
3-31 (VHH, also called 3-31_ExpiCHO) VHH: EVQLVESGGGLVQPGGSLRLSCAASGSTFSINAMGWFRQAPGKEREFVAGITSSGGYTNYADSVKGRFTISADNSKNTAYLQMNSLKPEDTAVYYCAADGVPEYSDYASGPVWGQGTLVTVSS	0.021 µM	0.021 µM	Kd (SARS-CoV-2 S1 monomer): 0.00591 µM
7-8 (VHH) VHH: EVQLVESGGGLVQPGGSLRLSCAASGSTFTINAMGWFRQAPGKEREFVSGISHNGGTTNYADSVKGRFTISADNSKNTAYLQMNSLKPEDTAVYYCAADGVPEYSDYASGPVWGQGTLVTVSS		0.0528 µM	
7-37 (VHH) VHH: EVQLVESGGGLVQPGGSLRLSCAASGSTLSINAMGWFRQAPGKEREFVAGITRSGSVTNYADSVKGRFTISADNSKNTAYLQMNSLKPEDTAVYYCAADGVPEYSDYASGPVWGQGTLVTVSS	0.0216 µM	0.0216 µM	Kd (SARS-CoV-2 S1 monomer): 0.0171 µM; koff (SARS-CoV-2 S1 monomer): 0.000528 s⁻¹; kon (SARS-CoV-2 S1 monomer): 30800 M⁻¹ s⁻¹
7-30 (VHH, not shown: a dimerising Fc or GST) VHH: EVQLVESGGGLVQPGGSLRLSCAASGRTFSMHAMGWFRQAPGKEREFVASISSQGRTNYADSVKGRFTISADNSKNTAYLQMNSLKPEDTAVYYCAAEVRNGSDYLPIDWGQGTLVTVSS	0.0487 µM	0.0487 µM	
8-06 (VHH, not shown: a dimerising Fc or GST, also called 8-6) VHH: EVQLVESGGGLVQPGGSLRLSCAASGFTFDYYAMGWFRQAPGKEREFVSAIDSEGRTSYADSVKGRFTISADNSKNTAYLQMNSLKPEDTAVYYCARWGPFDIWGQGTLVTVSS		0.0377 µM	
3-17 (VHH, not shown: a dimerising Fc or GST) VHH: EVQLVESGGGLVQPGGSLRLSCAASGRTSSSAVMGWFRQAPGKEREFVAAINRGGSTIYVDSVKGRFTISADNSKNTAYLQMNSLKPEDTAVYYCATGPYRSYFARSYLWGQGTLVTVSS		0.141 µM	
8-3 (VHH, not shown: a dimerising Fc or GST) VHH: EVQLVESGGGLVQPGGSLRLSCAASGTTLDYYAMGWFRQAPGKEREFVAAISWSGGSTAYADSVKGRFTISADNSKNTAYLQMNSLKPEDTAVYYCAREDYYDSSGYSWGQGTLVTVSS		18.4 µM	
7-24 (VHH, not shown: a dimerising Fc or GST) VHH: EVQLVESGGGLVQPGGSLRLSCAASGFTFSRHAMNWFRQAPGKEREFVSTITGSGGSTNYADSVKGRFTISADNSKNTAYLQMNSLKPEDTAVYYCAREVGLYYYGSGSSSRRLLGRIDYYFDYWGQGTLVTVSS		4260 µM	
7-21 (VHH) VHH: EVQLVESGGGLVQPGGSLRLSCAASGRTISRYTMGWFRQAPGKEREFVASITSGGSTAYADSVKGRFTISADNSKNTAYLQMNSLKPEDTAVYYCAKEDVGKPFDWGQGTLVTVSS		0.0271 µM	
7-40 (VHH) VHH: EVQLVESGGGLVQPGGSLRLSCAASGRTFRRYTMGWFRQAPGKEREFVASITKFGSTNYADSVKGRFTISADNSKNTAYLQMNSLKPEDTAVYYCAKEDVGKPFDWGQGTLVTVSS		85.6 µM	
7-41 (VHH) VHH: EVQLVESGGGLVQPGGSLRLSCAASGRTFSTYVMGWFRQAPGKEREFVASISSRGITHYADSVKGRFTISADNSKNTAYLQMNSLKPEDTAVYYCAKEDVGKPFDWGQGTLVTVSS		0.0481 µM	
7-45 (VHH) VHH: EVQLVESGGGLVQPGGSLRLSCAASGRTLSRYTMGWFRQAPGKEREFVASITSGGSTNYADSVKGRFTISADNSKNTAYLQMNSLKPEDTAVYYCAKEDVGKPFDWGQGTLVTVSS		0.0363 µM	
7-22 (VHH, not shown: a dimerising Fc or GST) VHH: EVQLVESGGGLVQPGGSLRLSCAASGRTITRYTMGWFRQAPGKEREFVASITSGGSTAYADSVKGRFTISADNSKNTAYLQMNSLKPEDTAVYYCAKQDVGKPFDWGQGTLVTVSS		0.0409 µM	
